Assay results: patent US20220048967A1 (published 2022)
Numbered stars: 1 amine (or outer) side, 2 acyl side, 3 side chain; on linkers, the order of the positions; unused ones are H or OH. Square brackets hold non-standard residues; d marks the D form. Side chains are listed from the residue outwards. Ends that are not written are not given here. * marks the point of attachment. C20 diacid = O=C(O)CCCCCCCCCCCCCCCCCCC(=O)*; γGlu = O=C(O)[C@H](CCC(=O)[*:2])N[*:1]; AEEA = NCCOCCOCC(=O)O; Aib = CC(C)(N)C(=O)O

T1: human GIP receptor (human, UniProt P48546 22-466)
T1 sequence (looked up): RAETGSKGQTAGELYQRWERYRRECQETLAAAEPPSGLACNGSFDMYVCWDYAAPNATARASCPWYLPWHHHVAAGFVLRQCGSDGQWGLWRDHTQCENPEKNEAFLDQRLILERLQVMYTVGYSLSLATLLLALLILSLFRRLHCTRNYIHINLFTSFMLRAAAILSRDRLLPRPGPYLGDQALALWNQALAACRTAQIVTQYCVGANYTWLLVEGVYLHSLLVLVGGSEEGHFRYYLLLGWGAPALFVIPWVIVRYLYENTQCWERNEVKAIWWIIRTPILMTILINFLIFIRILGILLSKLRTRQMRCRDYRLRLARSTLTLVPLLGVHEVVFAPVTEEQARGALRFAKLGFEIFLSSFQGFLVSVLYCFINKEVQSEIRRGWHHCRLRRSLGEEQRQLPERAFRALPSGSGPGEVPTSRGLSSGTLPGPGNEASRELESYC

B1: Example 44 (peptide)
peptide: Y[Aib]EGTFTSDYSILLDKIAQ[Aib]AFIEYLIEGGPSSGK([AEEA-AEEA-γGlu-C20 diacid])PPPS-NH2
modifications: N-terminus assumed
SMILES: CC[C@H](C)[C@H](NC(=O)[C@H](CCCCN)NC(=O)[C@H](CC(=O)O)NC(=O)[C@H](CC(C)C)NC(=O)[C@H](CC(C)C)NC(=O)[C@@H](NC(=O)[C@H](CO)NC(=O)[C@H](Cc1ccc(O)cc1)NC(=O)[C@H](CC(=O)O)NC(=O)[C@H](CO)NC(=O)[C@@H](NC(=O)[C@H](Cc1ccccc1)NC(=O)[C@@H](NC(=O)CNC(=O)[C@H](CCC(=O)O)NC(=O)C(C)(C)NC(=O)[C@@H](N)Cc1ccc(O)cc1)[C@@H](C)O)[C@@H](C)O)[C@@H](C)CC)C(=O)N[C@@H](C)C(=O)N[C@@H](CCC(N)=O)C(=O)NC(C)(C)C(=O)N[C@@H](C)C(=O)N[C@@H](Cc1ccccc1)C(=O)N[C@H](C(=O)N[C@@H](CCC(=O)O)C(=O)N[C@@H](Cc1ccc(O)cc1)C(=O)N[C@@H](CC(C)C)C(=O)N[C@H](C(=O)N[C@@H](CCC(=O)O)C(=O)NCC(=O)NCC(=O)N1CCC[C@H]1C(=O)N[C@@H](CO)C(=O)N[C@@H](CO)C(=O)NCC(=O)N[C@@H](CCCCNC(=O)COCCOCCNC(=O)COCCOCCNC(=O)CC[C@H](NC(=O)CCCCCCCCCCCCCCCCCCC(=O)O)C(=O)O)C(=O)N1CCC[C@H]1C(=O)N1CCC[C@H]1C(=O)N1CCC[C@H]1C(=O)N[C@@H](CO)C(N)=O)[C@@H](C)CC)[C@@H](C)CC
B2: Example 47 (peptide)
peptide: Y[Aib]EGTFTSDYSILLDKIAQ[Aib]AFIEYLIEGGPSSGAPPK([AEEA-AEEA-γGlu-C20 diacid])S-NH2
modifications: N-terminus assumed
SMILES: CC[C@H](C)[C@H](NC(=O)[C@H](CCCCN)NC(=O)[C@H](CC(=O)O)NC(=O)[C@H](CC(C)C)NC(=O)[C@H](CC(C)C)NC(=O)[C@@H](NC(=O)[C@H](CO)NC(=O)[C@H](Cc1ccc(O)cc1)NC(=O)[C@H](CC(=O)O)NC(=O)[C@H](CO)NC(=O)[C@@H](NC(=O)[C@H](Cc1ccccc1)NC(=O)[C@@H](NC(=O)CNC(=O)[C@H](CCC(=O)O)NC(=O)C(C)(C)NC(=O)[C@@H](N)Cc1ccc(O)cc1)[C@@H](C)O)[C@@H](C)O)[C@@H](C)CC)C(=O)N[C@@H](C)C(=O)N[C@@H](CCC(N)=O)C(=O)NC(C)(C)C(=O)N[C@@H](C)C(=O)N[C@@H](Cc1ccccc1)C(=O)N[C@H](C(=O)N[C@@H](CCC(=O)O)C(=O)N[C@@H](Cc1ccc(O)cc1)C(=O)N[C@@H](CC(C)C)C(=O)N[C@H](C(=O)N[C@@H](CCC(=O)O)C(=O)NCC(=O)NCC(=O)N1CCC[C@H]1C(=O)N[C@@H](CO)C(=O)N[C@@H](CO)C(=O)NCC(=O)N[C@@H](C)C(=O)N1CCC[C@H]1C(=O)N1CCC[C@H]1C(=O)N[C@@H](CCCCNC(=O)COCCOCCNC(=O)COCCOCCNC(=O)CC[C@H](NC(=O)CCCCCCCCCCCCCCCCCCC(=O)O)C(=O)O)C(=O)N[C@@H](CO)C(N)=O)[C@@H](C)CC)[C@@H](C)CC
B3: Example 46 (peptide)
peptide: Y[Aib]EGTFTSDYSILLDKIAQ[Aib]AFIEYLIEGGPSSGAPK([AEEA-AEEA-γGlu-C20 diacid])PS-NH2
modifications: N-terminus assumed
SMILES: CC[C@H](C)[C@H](NC(=O)[C@H](CCCCN)NC(=O)[C@H](CC(=O)O)NC(=O)[C@H](CC(C)C)NC(=O)[C@H](CC(C)C)NC(=O)[C@@H](NC(=O)[C@H](CO)NC(=O)[C@H](Cc1ccc(O)cc1)NC(=O)[C@H](CC(=O)O)NC(=O)[C@H](CO)NC(=O)[C@@H](NC(=O)[C@H](Cc1ccccc1)NC(=O)[C@@H](NC(=O)CNC(=O)[C@H](CCC(=O)O)NC(=O)C(C)(C)NC(=O)[C@@H](N)Cc1ccc(O)cc1)[C@@H](C)O)[C@@H](C)O)[C@@H](C)CC)C(=O)N[C@@H](C)C(=O)N[C@@H](CCC(N)=O)C(=O)NC(C)(C)C(=O)N[C@@H](C)C(=O)N[C@@H](Cc1ccccc1)C(=O)N[C@H](C(=O)N[C@@H](CCC(=O)O)C(=O)N[C@@H](Cc1ccc(O)cc1)C(=O)N[C@@H](CC(C)C)C(=O)N[C@H](C(=O)N[C@@H](CCC(=O)O)C(=O)NCC(=O)NCC(=O)N1CCC[C@H]1C(=O)N[C@@H](CO)C(=O)N[C@@H](CO)C(=O)NCC(=O)N[C@@H](C)C(=O)N1CCC[C@H]1C(=O)N[C@@H](CCCCNC(=O)COCCOCCNC(=O)COCCOCCNC(=O)CC[C@H](NC(=O)CCCCCCCCCCCCCCCCCCC(=O)O)C(=O)O)C(=O)N1CCC[C@H]1C(=O)N[C@@H](CO)C(N)=O)[C@@H](C)CC)[C@@H](C)CC
B4: Example 45 (peptide)
peptide: Y[Aib]EGTFTSDYSILLDKIAQ[Aib]AFIEYLIEGGPSSGAK([AEEA-AEEA-γGlu-C20 diacid])PPS-NH2
modifications: N-terminus assumed
SMILES: CC[C@H](C)[C@H](NC(=O)[C@H](CCCCN)NC(=O)[C@H](CC(=O)O)NC(=O)[C@H](CC(C)C)NC(=O)[C@H](CC(C)C)NC(=O)[C@@H](NC(=O)[C@H](CO)NC(=O)[C@H](Cc1ccc(O)cc1)NC(=O)[C@H](CC(=O)O)NC(=O)[C@H](CO)NC(=O)[C@@H](NC(=O)[C@H](Cc1ccccc1)NC(=O)[C@@H](NC(=O)CNC(=O)[C@H](CCC(=O)O)NC(=O)C(C)(C)NC(=O)[C@@H](N)Cc1ccc(O)cc1)[C@@H](C)O)[C@@H](C)O)[C@@H](C)CC)C(=O)N[C@@H](C)C(=O)N[C@@H](CCC(N)=O)C(=O)NC(C)(C)C(=O)N[C@@H](C)C(=O)N[C@@H](Cc1ccccc1)C(=O)N[C@H](C(=O)N[C@@H](CCC(=O)O)C(=O)N[C@@H](Cc1ccc(O)cc1)C(=O)N[C@@H](CC(C)C)C(=O)N[C@H](C(=O)N[C@@H](CCC(=O)O)C(=O)NCC(=O)NCC(=O)N1CCC[C@H]1C(=O)N[C@@H](CO)C(=O)N[C@@H](CO)C(=O)NCC(=O)N[C@@H](C)C(=O)N[C@@H](CCCCNC(=O)COCCOCCNC(=O)COCCOCCNC(=O)CC[C@H](NC(=O)CCCCCCCCCCCCCCCCCCC(=O)O)C(=O)O)C(=O)N1CCC[C@H]1C(=O)N1CCC[C@H]1C(=O)N[C@@H](CO)C(N)=O)[C@@H](C)CC)[C@@H](C)CC

Tests used:
human GIP receptor = molecular target: T1, human GIP receptor; assay: cell-based or functional assay
human GLP-1 receptor = human GLP-1 receptor (human, UniProt P43220 24-463); assay: cell-based or functional assay

| Binder | hGIPR cAMP EC50 ratio (human GIP receptor) | hGIPR cAMP Rel EC50 (human GIP receptor) [nM] | hGLP1R cAMP EC50 ratio (human GLP-1 receptor) | hGLP1R cAMP Rel EC50 (human GLP-1 receptor) [nM] |
| --- | --- | --- | --- | --- |
| B1 | 1.11 | 0.128 | 0.0918 | 0.752 |
| B2 | 0.654 | 0.287 | 0.089 | 0.702 |
| B3 | 0.828 | 0.172 | 0.0969 | 0.687 |
| B4 | 1.75 | 0.106 | 0.0569 | 1.03 |
